Data: patent US20220135687A1

Legend:
[1] = molecular target: cynomolgus PD-L1 overexpressing stable cell line (cynomolgus) (UniProt G7PSE7); test: FACS, cynomolgus PD-L1 cell line
[2] = molecular target: cynomolgus PD-L1 Fc-fusion protein (cynomolgus) (UniProt G7PSE7); test: SPR, cyno PD-L1-Fc immobilised, antibody analyte
Sequence of cynomolgus PD-L1 Fc-fusion protein (cynomolgus) (G7PSE7 entry or part of it limits assumed): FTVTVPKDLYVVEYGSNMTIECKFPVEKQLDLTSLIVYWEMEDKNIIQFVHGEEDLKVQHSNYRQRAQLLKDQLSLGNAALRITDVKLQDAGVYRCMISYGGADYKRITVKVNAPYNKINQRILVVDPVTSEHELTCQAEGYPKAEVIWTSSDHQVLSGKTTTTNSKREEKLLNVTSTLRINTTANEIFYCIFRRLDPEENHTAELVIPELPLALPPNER

Sequence of Durvalumab (antibody) (VH): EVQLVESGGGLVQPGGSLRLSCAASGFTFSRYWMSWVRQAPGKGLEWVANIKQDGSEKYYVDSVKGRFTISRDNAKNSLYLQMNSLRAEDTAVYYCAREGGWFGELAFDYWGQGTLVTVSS
Sequence of Durvalumab (antibody) (VL): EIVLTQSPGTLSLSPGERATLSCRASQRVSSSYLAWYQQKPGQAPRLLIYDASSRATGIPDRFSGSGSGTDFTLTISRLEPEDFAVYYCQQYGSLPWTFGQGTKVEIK
Sequence of cynomolgus PD-L1 overexpressing stable cell line (cynomolgus) (G7PSE7 entry or part of it limits assumed): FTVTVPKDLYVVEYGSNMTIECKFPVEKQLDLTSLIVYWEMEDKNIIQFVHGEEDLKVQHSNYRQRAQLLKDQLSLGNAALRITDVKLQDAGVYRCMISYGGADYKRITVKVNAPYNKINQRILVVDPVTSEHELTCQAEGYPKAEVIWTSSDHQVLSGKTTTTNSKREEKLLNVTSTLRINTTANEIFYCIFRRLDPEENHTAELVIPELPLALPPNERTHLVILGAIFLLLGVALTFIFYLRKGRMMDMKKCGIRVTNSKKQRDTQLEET

EC50 [1]: 3.07 nM
Top (best-fit value) [1]: 8220
Kd [2]: 1.1 nM
Substance: Durvalumab (antibody)
